Measured values as given in PMC4344510.
Where two headings read alike, the source gives them in different places.

Assays:
Hfq65 R16A/R17A = Hfq65 R16A/R17A (Escherichia coli, UniProt P0A6X3 1-65, R16A;R17A); assay: NMR
Hfq N28A [1] = biological target: T1, Hfq N28A (Escherichia coli, UniProt P0A6X3 1-102, N28A); assay: fluorescence polarization
Hfq N48A [2] = biological target: T2, Hfq N48A (Escherichia coli, UniProt P0A6X3 1-102, N48A); assay: fluorescence polarization
Hfq WT [3] = biological target: T3, Hfq WT (Escherichia coli, UniProt P0A6X3 1-102); assay: fluorescence polarization
Hfq N48A [4] = biological target: T2, Hfq N48A; assay: fluorescence polarization; remark: listed apart in the source
Hfq N28A [5] = biological target: T1, Hfq N28A; assay: fluorescence polarization; remark: listed apart in the source
Hfq F42S = Hfq F42S (Escherichia coli, UniProt P0A6X3 1-102, F42S); assay: fluorescence polarization
Hfq WT [6] = biological target: T3, Hfq WT; assay: fluorescence polarization; remark: listed apart in the source
Hfq N28A [7] = biological target: T1, Hfq N28A; assay: fluorescence polarization; remark: listed apart in the source

Binder	binding result (Hfq65 R16A/R17A)	Kd (Hfq N48A [4]) [nM]	binding result (Hfq F42S)	Kd (Hfq WT [6]) [nM]	other results
AACUAAA (ssRNA) [Ads]	binds				
AAAAAAA (ssRNA) [A7 (FAM)]					binding signal (Hfq N28A [1]): ~40 fold weaker than WT; binding signal (Hfq N48A [2]): ~27 fold weaker than WT
AACUAAA (ssRNA) [Ads (FAM)]		92.8	binds		Kd (Hfq WT [3]): 1490 nM; binding result (Hfq N28A [5]): binds
AUAACUA (ssRNA) [Aus]	binds				
AAUAACUAAA (ssRNA) [OxyS 65-74 10-nt]				13	
AUAACUA (ssRNA) [Aus (FAM)]		16.8	binds	22	binding signal (Hfq N28A [7]): ~6 fold weaker than WT
